# Literature values as cited in paper PMC4115806.
# Target: EPCR (Homo sapiens) (UniProt Q9UNN8)
# Sequence (Q9UNN8 18-210): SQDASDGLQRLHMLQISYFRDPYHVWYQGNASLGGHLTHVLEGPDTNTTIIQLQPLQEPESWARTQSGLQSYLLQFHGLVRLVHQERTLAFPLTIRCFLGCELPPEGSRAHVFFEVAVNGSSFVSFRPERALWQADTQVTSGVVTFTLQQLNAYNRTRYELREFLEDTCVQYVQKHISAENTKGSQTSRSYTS
# Sequence of protein C (P04070 43-197): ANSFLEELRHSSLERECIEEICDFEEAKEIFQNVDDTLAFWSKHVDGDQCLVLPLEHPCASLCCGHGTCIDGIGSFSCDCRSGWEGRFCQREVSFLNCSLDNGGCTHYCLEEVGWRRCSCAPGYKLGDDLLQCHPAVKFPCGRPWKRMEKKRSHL
substance,measurement,value
protein C (from UniProt P04070),Kd,30 nM
